In patent US20190106487A1 (Sanofi, published 2019):
Substitutions are numbered along the chain they refer to.

B1: P013.S.01.B.C06 (antibody, V domains shown)
VH: QSVEESGGRLVTPGGSLTLTCTVSGFSLSIYAMGWFRQAPGKGLEWIGDIYAGSGSTWYASWAKGRFTISKTSTTVDLKITSPTTEDTATYFCAREIDAGYVGYGFNLWGQGTLVTVSS
VL: AQALTQTPSSVSAAVGGTVTINCQSSQSVYSDYLAWYQQKPGQPPKLLIYQASKLATGVPSRFKGSGSGTQFTLTISGVQSDDAATYYCQATYYGSGWYRAFGGGTELVVK
notes: rabbit monoclonal antibody; also called P013.A.00014.D06
B2: P013.S.02.B.C01 (antibody, V domains shown)
VH: B1 VH with I30V, A52T
VL: B1 VL with A35V, T57S, Y94S, G95S, S96T, L108V
notes: rabbit monoclonal antibody; also called P013.A.00109.C12
B3: P013.S.02.B.E01 (antibody, V domains shown)
VH: QSLEESGGRLVTPGTPLTLTCTVSGFSLSIYGMGWVRQAPGEGLEWIGSISSGGSTYYATWAKGRFTISKTSSTTLDLKITSPTTEDTATYFCVRSDGYTNGDYDTYFNLWGQGTLVTVS
VL: DIVMTQTPASVSEPVGGTVTIRCQASQSISSWLSWYQQKPGQPPKLLIYQASALASGVSSRFIGSGYGTEFTLTISGVQSEDAATYYCQCTYGIGSNSDYGVAFGGGTEVVVK
notes: rabbit monoclonal antibody; also called P013.A.00013.G07
B4: P013.S.02.B.E02 (antibody, V domains shown)
VH: QSVEESGGRLVTPGTPLTLTCTVSGFSLNVYNMGWVRQAPGKGLEYIGIISSSGTTYYASWAKGRFTISKTSSTTVDLKITSLTTEDTATYFCARADGYTEGDYATYFNLWGQGTLVTVSS
VL: B3 VL with R22K, S30T, S31T, S34A, N97G, D99S
notes: rabbit monoclonal antibody; also called P013.A.00087.E09
B5: P013.S.02.B.C03 (antibody, V domains shown)
VH: QSLEESGGRLVTPGTPLTLTCTVSGIDLSSYAMGWVRQAPGKGLEYIGIISNSGTTYYASWAKGRFTISKTSSTTVDLKMTSPTTEDTATYFCARDRYANTHGIFSLWGQGTLVTVSS
VL: DIVMTQTPASVSAPVGGTVTINCQASESIYSDLAWYQQKPGQPPKLLISFVATLESGVPSRFKGSGSGTEFTLTISDLESADAATYYCQCTYGGSGSGNGAAFGGGTEVVVK
notes: rabbit monoclonal antibody; also called P013.A.00085.G07

Legend:
mIL1RAcP-Fc = molecular target: T1, mIL1RAcP-Fc (murine, UniProt Q61730 21-359); experiment: ELISA, primary supernatant, coated mu-IL-1RAcP-Fc
T1 construct: also called P013_04; P013-04
T1 sequence (looked up): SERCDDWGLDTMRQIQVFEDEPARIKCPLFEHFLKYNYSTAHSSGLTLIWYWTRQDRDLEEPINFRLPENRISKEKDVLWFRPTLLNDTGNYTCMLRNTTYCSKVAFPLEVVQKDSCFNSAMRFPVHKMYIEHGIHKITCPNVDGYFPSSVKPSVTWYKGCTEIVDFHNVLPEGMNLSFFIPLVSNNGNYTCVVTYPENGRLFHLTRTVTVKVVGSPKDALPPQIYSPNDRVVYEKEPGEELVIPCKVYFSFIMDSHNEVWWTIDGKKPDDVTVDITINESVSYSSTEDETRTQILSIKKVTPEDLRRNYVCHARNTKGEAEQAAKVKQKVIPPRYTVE

[1] = molecular target: T2, human IL-1RAcP on 293T/17-FR cells (human, UniProt Q9NPH3 21-570); experiment: cell-based or functional assay
T2 sequence (looked up): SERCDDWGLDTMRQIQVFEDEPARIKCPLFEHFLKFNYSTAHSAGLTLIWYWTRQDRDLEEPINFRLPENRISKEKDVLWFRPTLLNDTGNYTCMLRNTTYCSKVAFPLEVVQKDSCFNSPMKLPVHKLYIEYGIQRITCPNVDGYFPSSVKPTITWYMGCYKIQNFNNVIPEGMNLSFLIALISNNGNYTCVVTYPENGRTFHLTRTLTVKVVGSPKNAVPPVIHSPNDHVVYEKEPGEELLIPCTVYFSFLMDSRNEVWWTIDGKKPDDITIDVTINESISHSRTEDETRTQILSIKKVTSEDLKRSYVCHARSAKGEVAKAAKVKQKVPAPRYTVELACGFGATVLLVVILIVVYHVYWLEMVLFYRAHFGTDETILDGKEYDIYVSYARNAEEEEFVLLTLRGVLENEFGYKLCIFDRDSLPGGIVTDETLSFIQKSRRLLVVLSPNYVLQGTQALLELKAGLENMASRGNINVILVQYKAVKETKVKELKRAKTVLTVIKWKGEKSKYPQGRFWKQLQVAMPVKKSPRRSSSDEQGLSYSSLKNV

rhIL-1RAcP/Fc Chimera [2] = molecular target: T3, rhIL-1RAcP/Fc Chimera (human, UniProt Q9NPH3 21-359); experiment: ELISA, primary supernatant, coated hu-IL-1RAcP-Fc
T3 construct: also called P013_03; P013-03
T3 sequence (looked up): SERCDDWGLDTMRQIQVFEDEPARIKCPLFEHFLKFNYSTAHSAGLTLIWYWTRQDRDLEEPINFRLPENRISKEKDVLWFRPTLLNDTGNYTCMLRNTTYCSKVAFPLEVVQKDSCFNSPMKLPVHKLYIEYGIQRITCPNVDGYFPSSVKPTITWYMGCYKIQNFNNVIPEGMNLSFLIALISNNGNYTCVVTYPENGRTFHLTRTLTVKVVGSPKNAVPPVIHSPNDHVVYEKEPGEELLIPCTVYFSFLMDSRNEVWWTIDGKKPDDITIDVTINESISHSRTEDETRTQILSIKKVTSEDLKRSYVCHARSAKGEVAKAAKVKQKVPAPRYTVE
Summary of the method: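 Plates coated with 0.5 μg/mL Fc-tagged human IL-1RAcP; rabbit B-cell supernatant antibodies detected by peroxidase anti-rabbit IgG Fab2 and TMB, absorbance 450/620 nm. Parallel IL12Rβ1-Fc coating served as counterscreen to exclude tag binders.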

rhIL-1RAcP/Fc Chimera [3] = molecular target: T3, rhIL-1RAcP/Fc Chimera; experiment: ELISA, recombinant purified mAb

| mu-IL1RaP ELISA (OD) (mIL1RAcP-Fc) | functional reporter gene assay (% inhibition), 0.04 µg/mL mAb [1] [%] | functional reporter gene assay (% inhibition), 0.2 µg/mL mAb [1] [%] | functional reporter gene assay (% inhibition), 1 µg/mL mAb [1] [%] | functional reporter gene assay (% inhibition), 5 µg/mL mAb [1] [%] | primary supernatant functional assay (% inh.), NF-kB luciferase reporter [1] [%] | hu-IL1RaP ELISA (OD) (rhIL-1RAcP/Fc Chimera [2]) | EC50 (rhIL-1RAcP/Fc Chimera [3]) [µg/mL] | Binder |
| --- | --- | --- | --- | --- | --- | --- | --- | --- |
| -0.1 | 15 | 70 | 92 | 93 | 72 | 3.4 | 0.07 | B1 |
| -0.1 | 19 | 28 | 73 | 96 | 88 | 3.5 | 0.256 | B2 |
| -0.1 | -6 | 14 | 56 | 86 | 79 | 3.7 | 0.137 | B3 |
| 0 | 0 | 14 | 21 | 68 | 85 | 3.3 | 0.59 | B4 |
| 0.7 | 21 | 27 | 31 | 30 | 29 | 3.6 | 0.847 | B5 |
